These results are taken from patent US20140288149A1.

The experiment deals with IL-7 receptor (IL-7R), mouse (mouse) (UniProt P16872). The experiment can be described thus: cell-based or functional assay.
Sequence of UniProt P16872 (P16872 21-459, chain 1 of 2): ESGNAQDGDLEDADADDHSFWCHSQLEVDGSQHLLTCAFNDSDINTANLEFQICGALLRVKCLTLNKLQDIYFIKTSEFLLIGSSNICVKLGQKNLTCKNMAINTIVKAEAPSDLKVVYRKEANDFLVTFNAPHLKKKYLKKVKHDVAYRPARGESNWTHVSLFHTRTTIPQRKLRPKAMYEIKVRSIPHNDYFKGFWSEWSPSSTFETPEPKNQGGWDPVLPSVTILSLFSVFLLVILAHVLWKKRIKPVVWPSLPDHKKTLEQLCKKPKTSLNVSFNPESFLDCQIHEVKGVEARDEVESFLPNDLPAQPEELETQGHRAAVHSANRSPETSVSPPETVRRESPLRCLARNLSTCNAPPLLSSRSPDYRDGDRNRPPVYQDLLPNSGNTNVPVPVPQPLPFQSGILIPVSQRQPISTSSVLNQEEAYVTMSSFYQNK
Sequence of UniProt P16872 (P34902 23-369, chain 2 of 2, further chain): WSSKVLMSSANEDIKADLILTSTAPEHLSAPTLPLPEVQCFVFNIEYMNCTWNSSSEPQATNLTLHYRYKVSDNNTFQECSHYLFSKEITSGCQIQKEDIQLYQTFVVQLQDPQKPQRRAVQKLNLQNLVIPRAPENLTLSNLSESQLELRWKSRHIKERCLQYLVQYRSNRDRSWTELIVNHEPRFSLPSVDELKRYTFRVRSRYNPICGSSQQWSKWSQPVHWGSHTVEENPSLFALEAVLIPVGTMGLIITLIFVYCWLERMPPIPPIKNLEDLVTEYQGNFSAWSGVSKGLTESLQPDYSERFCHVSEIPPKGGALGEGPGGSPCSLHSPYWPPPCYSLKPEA

Take “recombinant mouse IL-7 (from UniProt P10168 26-154) (ligand)”: the percentage of cells positive for pSTAT5 (flow cytometry / ImageStream), WT CD4+ T cells, 30 minutes of culture with IL-7 was over 71% and the percentage of cells positive for pSTAT5 (flow cytometry / ImageStream), mir-142-/- CD4+ T cells, 30 minutes of culture with IL-7 stood at 8.7%.
